Measured values published in PMC3408433, “Selective Cytotoxicity of Amidinopiperidine Based Compounds Towards Burkitt’s Lymphoma Cells Involves Proteasome Inhibition” (PLoS ONE, 2012).

Experiments:
Type in all cases: biochemical
Conditions in all cases: other: substrate on purified human 20S proteasome; pH 8.0; 37.0 °C
[1] = substrate: Cc1cc(=O)oc2cc(NC(=O)[C@H](Cc3ccc(O)cc3)NC(=O)[C@@H](NC(=O)[C@H](CC(C)C)NC(=O)[C@H](CC(C)C)NC(=O)CCC(=O)O)C(C)C)ccc12; assay: Proteasome activity measurement, chymotrypsin-like
Description: (§1) Suc-Leu-Leu-Val-Tyr-AMC, Bz-Val-Gly-Arg-AMC and Z-Leu-Leu-Glu-AMC (Bachem, Bubendorf, Switzerland) were used for the chymotrypsin-like, trypsin-like and caspase-like activites, respectively. Assay buffer consisted of TE buffer (20 mM Tris (pH = 8.0), 0.5 mM EDTA, 0.03% SDS). Substrate hydrolysis was continuously monitored at 37°C with an automated microplate reader (Tecan Safire^2). Measured fluorescence values (RFU) were plotted versus time with nonlinear regression to fit a Michaelis-Menten plot.
(§2) For the Ki determination, 25 µL of substrate at three concentrations and 25 µL of inhibitor of interest also at three different concentrations were added to the wells of a white microplate. The reaction was initiated with 50 µL of the enzyme in the assay buffer. Flourescence of the AMC release was continuously monitored at 420 nm with 320 nm excitation.
(§3) Km and Ki were calculated using SigmaPlot 11 (Enzyme Kinetics Module 1.3) and are presented as the mean of three independent experiments.

[2] = substrate: Cc1cc(=O)oc2cc(NC(=O)[C@H](CCCNC(=N)N)NC(=O)CNC(=O)[C@@H](NC(=O)c3ccccc3)C(C)C)ccc12; assay: Proteasome activity measurement, trypsin-like
Description: as §1, §2, §3

[3] = substrate: Cc1cc(=O)oc2cc(NC(=O)[C@H](CCC(=O)O)NC(=O)[C@H](CC(C)C)NC(=O)[C@H](CC(C)C)NC(=O)OCc3ccccc3)ccc12; assay: Proteasome activity measurement, caspase-like
Description: as §1, §2, §3

B1: chymotrypsin-like activity of human 20S proteasome (Homo sapiens) (protein)
chain: TTTLAFKFRHGVIVAADSRATAGAYIASQTVKKVIEINPYLLGTMAGGAADCSFWERLLARQCRIYELRNKERISVAAASKLLANMVYQYKGMGLSMGTMICGWDKRGPGLYYVDSEGNRISGATFSVGSGSVYAYGVMDRGYSYDLEVEQAYDLARRAIYQATYRDAYSGGAVNLYHVREDGWIRVSSDNVADLHEKYSGSTP
notes: purchased Boston Biochem, Inc
[1]
  Km: 100 ± 12 µM

B2: trypsin-like activity of human 20S proteasome (Homo sapiens) (protein)
chain: TTIAGVVYKDGIVLGADTRATEGMVVADKNCSKIHFISPNIYCCGAGTAADTDMTTQLISSNLELHSLSTGRLPRVVTANRMLKQMLFRYQGYIGAALVLGGVDVTGPHLYSIYPHGSTDKLPYVTMGSGSLAAMAVFEDKFRPDMEEEEAKNLVSEAIAAGIFNDLGSGSNIDLCVISKNKLDFLRPYTVPNKKGTRLGRYRCEKGTTAVLTEKITPLEIEVLEETVQTMDTS
notes: purchased Boston Biochem, Inc
[2]
  Km: 44 ± 5 µM

B3: caspase-like activity of human 20S proteasome (Homo sapiens) (protein)
chain: TTIMAVQFDGGVVLGADSRTTTGSYIANRVTDKLTPIHDRIFCCRSGSAADTQAVADAVTYQLGFHSIELNEPPLVHTAASLFKEMCYRYREDLMAGIIIAGWDPQEGGQVYSVPMGGMMVRQSFAIGGSGSSYIYGYVDATYREGMTKEECLQFTANALALAMERDGSSGGVIRLAAIAESGVERQVLLGDQIPKFAVATLPPA
notes: purchased Boston Biochem, Inc
[3]
  Km: 37 ± 9 µM
